Data from article PMC10759260 (Journal of Pharmaceutical Analysis, 2023).
Read-outs that look alike come from different tables or passages of the source.

How the values were obtained:
HSP90α mutant Y61A = HSP90α mutant Y61A (Homo sapiens, UniProt P07900, Y61A); test: biochemical
[1] = target: HSP90α (90 kD heat shock protein alpha) (Homo sapiens, UniProt P07900); test: biochemical
[2] = target: CDC37 recombinant protein (UniProt Q16543); test: ITC
[3] = target: CDC37 recombinant protein (UniProt Q16543); test: ITC; remark: listed apart in the source

Chain of CDC37 recombinant protein (Q16543 whole entry): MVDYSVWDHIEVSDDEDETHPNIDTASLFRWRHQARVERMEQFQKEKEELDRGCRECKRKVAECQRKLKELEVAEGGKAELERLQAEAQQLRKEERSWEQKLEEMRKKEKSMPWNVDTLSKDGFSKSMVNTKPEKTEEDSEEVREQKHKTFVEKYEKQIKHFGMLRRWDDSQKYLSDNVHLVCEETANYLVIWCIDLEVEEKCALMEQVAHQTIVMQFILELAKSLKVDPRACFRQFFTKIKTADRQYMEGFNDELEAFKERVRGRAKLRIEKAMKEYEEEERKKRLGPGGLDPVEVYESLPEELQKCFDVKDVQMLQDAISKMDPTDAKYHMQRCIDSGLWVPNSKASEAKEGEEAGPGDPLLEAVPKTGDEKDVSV

Compound	Kd (HSP90α mutant Y61A)	Kd [1]	Kd [2]	Kd [3]
CC(C)=CC/C=C(\C)[C@H]1CC[C@]2(C)[C@@H]1[C@H](O)C[C@@H]1[C@@]3(C)CC[C@H](O[C@@H]4O[C@H](CO)[C@@H](O)[C@H](O)[C@H]4O[C@@H]4O[C@H](CO)[C@@H](O)[C@H](O)[C@H]4O)C(C)(C)[C@@H]3CC[C@]12C [Rg5, ginsenoside Rg5]	232 ± 34 µM	24.8 ± 1.76 µM		
HSP90α WT recombinant protein from E. coli (from UniProt P07900 1-732) (natural protein)			2.68 µM	34.4 µM
HSP90α Y61A recombinant protein from E. coli (from UniProt P07900 1-732) (natural protein)			7.59 µM	8.23 µM
